{"source": "patent US20240132578A1", "binders": {"B1": {"name": "PGT-135 (antibody, V domains shown)", "VH": "QLQMQESGPGLVKPSETLSLSCTVSGDSIRGGEWGDKDYHWGWVRHSAGKGLEWIGSIHWRGTTHYKESLRRRVSMSIDTSRNWFSLRLASVTAADTAVYFCARHRHHDVFMLVPIAGWFDVWGPGVQVTVSS", "VL": "EIVMTQSPDTLSVSPGETVTLSCRASQNINKNLAWYQYKPGQSPRLVIFETYSKIAAFPARFVASGSGTEFTLTINNMQSEDVAVYYCQQYEEWPRTFGQGTKVDIK"}}, "experiment_in_all_cases": "cell-based or functional assay", "key": {"[1]": {"molecular_target": "HIV-1 JR-CSF Env G471A (HIV-1 JR-CSF) (UniProt P20871)"}, "[2]": {"molecular_target": "HIV-1 Env of isolate MGRM-G-019 (subtype G), on pseudovirus (HIV-1)"}, "[3]": {"molecular_target": "HIV-1 Env of isolate MGRM-G-015 (subtype G), on pseudovirus (HIV-1)"}, "[4]": {"molecular_target": "HIV-1 Env of isolate MGRM-G-011 (subtype G), on pseudovirus (HIV-1)"}, "[5]": {"molecular_target": "HIV-1 Env of isolate APV_17 (subtype B) (HIV-1)"}, "[6]": {"molecular_target": "HIV-1 Env of isolate APV 6 (subtype B) (HIV-1)"}, "[7]": {"molecular_target": "HIV-1 Env of isolate MGRM-G-006 (subtype G), on pseudovirus (HIV-1)"}, "[8]": {"molecular_target": "HIV-1 Env of isolate MGRM-G-004 (subtype G), on pseudovirus (HIV-1)"}, "[9]": {"molecular_target": "HIV-1 Env of isolate MGRM-G-017 (subtype G), on pseudovirus (HIV-1)"}, "[10]": {"molecular_target": "HIV-1 Env of isolate MGRM-G-009 (subtype G), on pseudovirus (HIV-1)"}, "[11]": {"molecular_target": "aMLV envelope, on pseudovirus (negative control)"}, "[12]": {"molecular_target": "HIV-1 Env of isolate MGRM-G-027 (subtype G), on pseudovirus (HIV-1)"}, "[13]": {"molecular_target": "HIV-1 Env of isolate MGRM-G-024 (subtype G), on pseudovirus (HIV-1)"}, "[14]": {"molecular_target": "HIV-1 Env of isolate MGRM-G-013 (subtype G), on pseudovirus (HIV-1)"}, "[15]": {"molecular_target": "HIV-1 Env of isolate MGRM-G-028 (subtype G), on pseudovirus (HIV-1)"}, "[16]": {"molecular_target": "HIV-1 Env of isolate 93TH305 (subtype B) (HIV-1)"}, "[17]": {"molecular_target": "HIV-1 Env of isolate MGRM-G-014 (subtype G), on pseudovirus (HIV-1)"}, "[18]": {"molecular_target": "HIV-1 Env of isolate MGRM-G-025 (subtype G), on pseudovirus (HIV-1)"}, "[19]": {"molecular_target": "HIV-1 Env of isolate 92BR020 (subtype B) (HIV-1)"}, "[20]": {"molecular_target": "HIV-1 Env of isolate 6535.3 (subtype B) (HIV-1)"}, "[21]": {"molecular_target": "HIV-1 Env of isolate MGRM-G-016 (subtype G), on pseudovirus (HIV-1)"}, "[22]": {"molecular_target": "HIV-1 Env of isolate MGRM-G-001 (subtype G), on pseudovirus (HIV-1)"}, "[23]": {"molecular_target": "HIV-1 Env of isolate APV 13 (subtype B) (HIV-1)"}}, "data": [{"binder": "B1", "values": [{"measurement": "Fold IC50 increase relative to wild-type", "setting": "[1]", "result": 3, "unit": "fold"}, {"measurement": "IC50 (µg/mL), neutralization of pseudovirus", "setting": "[2]", "result": 0.145, "unit": "µg/mL"}, {"measurement": "IC50 (µg/mL), neutralization of pseudovirus", "setting": "[3]", "result": "> 50", "unit": "µg/mL"}, {"measurement": "IC50 (µg/mL), neutralization of pseudovirus", "setting": "[4]", "result": "> 50", "unit": "µg/mL"}, {"measurement": "IC50 (µg/mL), pseudovirus neutralization", "setting": "[5]", "result": "> 50", "unit": "µg/mL"}, {"measurement": "IC50 (µg/mL), pseudovirus neutralization", "setting": "[6]", "result": "> 50", "unit": "µg/mL"}, {"measurement": "IC50 (µg/mL), neutralization of pseudovirus", "setting": "[7]", "result": "> 50", "unit": "µg/mL"}, {"measurement": "IC50 (µg/mL), neutralization of pseudovirus", "setting": "[8]", "result": "> 50", "unit": "µg/mL"}, {"measurement": "IC50 (µg/mL), neutralization of pseudovirus", "setting": "[9]", "result": 0.137, "unit": "µg/mL"}, {"measurement": "IC50 (µg/mL), neutralization of pseudovirus", "setting": "[10]", "result": "> 50", "unit": "µg/mL"}, {"measurement": "IC50 (µg/mL), neutralization of pseudovirus", "setting": "[11]", "result": "> 50", "unit": "µg/mL"}, {"measurement": "IC50 (µg/mL), neutralization of pseudovirus", "setting": "[12]", "result": 0.062, "unit": "µg/mL"}, {"measurement": "IC50 (µg/mL), neutralization of pseudovirus", "setting": "[13]", "result": 0.062, "unit": "µg/mL"}, {"measurement": "IC50 (µg/mL), neutralization of pseudovirus", "setting": "[14]", "result": "> 50", "unit": "µg/mL"}, {"measurement": "IC50 (µg/mL), neutralization of pseudovirus", "setting": "[15]", "result": "> 50", "unit": "µg/mL"}, {"measurement": "IC50 (µg/mL), pseudovirus neutralization", "setting": "[16]", "result": "> 50", "unit": "µg/mL"}, {"measurement": "IC50 (µg/mL), neutralization of pseudovirus", "setting": "[17]", "result": "> 50", "unit": "µg/mL"}, {"measurement": "IC50 (µg/mL), neutralization of pseudovirus", "setting": "[18]", "result": 0.592, "unit": "µg/mL"}, {"measurement": "IC50 (µg/mL), pseudovirus neutralization", "setting": "[19]", "result": 0.073, "unit": "µg/mL"}, {"measurement": "IC50 (µg/mL), pseudovirus neutralization", "setting": "[20]", "result": "> 50", "unit": "µg/mL"}, {"measurement": "IC50 (µg/mL), neutralization of pseudovirus", "setting": "[21]", "result": "> 50", "unit": "µg/mL"}, {"measurement": "IC50 (µg/mL), neutralization of pseudovirus", "setting": "[22]", "result": 0.393, "unit": "µg/mL"}, {"measurement": "IC50 (µg/mL), pseudovirus neutralization", "setting": "[23]", "result": 0.716, "unit": "µg/mL"}]}]}
